Results published in article PMC11754618, “Chemical tools to define and manipulate interferon-inducible Ubl protease USP18” (Nature Communications, 2025).
Each block holds one binder with its values, some of them ahead of it.

Experiments:
Settings in all cases: both partners purified
[1] = target: T1, His6-Hs.USP18 (16-372) (human, UniProt Q9UMW8 16-372); experiment: covalent labelling by an activity-based probe (SDS-PAGE); recombinant USP18 (2 μM), USP5 (1 μM) or USP16 (0.45 μM) with Ac-Ubl-PA probes (10 μM), 3 h, room temperature; higher band on SDS-PAGE, SYPRO Ruby staining
T1 construct: ubiquitin-specific protease 18 (USP18), human, residues 16-372; Expressed as MBP-tev-His6-USP18 from pDest-795 (Addgene 161881 is the vector); the TEV site was cut, His6 stays; also called human USP18; recombinant human USP18; source: insect cells (baculovirus), purified (IMAC, TEV digest, second IMAC); not shown: MBP, N-terminal, cleaved; His6, N-terminal, kept
T1 sequence (looked up): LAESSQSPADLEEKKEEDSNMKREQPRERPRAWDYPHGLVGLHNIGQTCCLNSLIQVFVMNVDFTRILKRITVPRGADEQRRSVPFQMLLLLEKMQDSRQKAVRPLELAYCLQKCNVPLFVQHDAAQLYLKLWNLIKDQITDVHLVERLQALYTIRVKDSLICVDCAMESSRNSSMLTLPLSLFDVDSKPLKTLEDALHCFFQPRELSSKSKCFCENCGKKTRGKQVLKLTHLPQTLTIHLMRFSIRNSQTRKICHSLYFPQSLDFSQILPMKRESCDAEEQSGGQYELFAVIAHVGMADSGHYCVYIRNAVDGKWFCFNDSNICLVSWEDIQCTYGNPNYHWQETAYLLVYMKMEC

[2] = target: T2, His6-Mm.USP18 (46-368) (mouse, UniProt Q9WTV6 46-368); experiment: as above
T2 construct: ubiquitin-specific protease 18 (USP18), mouse, residues 46-368; Expressed as MBP-tev-His6-USP18 from pDest-795 (Addgene 161881 is the vector); the TEV site ENLYFQG was cut, His6 stays and serves for capture on the NTA chip; also called mouse USP18; recombinant mouse USP18; source: insect cells (baculovirus), purified (IMAC, TEV digest, second IMAC); not shown: MBP, N-terminal, cleaved; His6, …
T2 sequence (looked up): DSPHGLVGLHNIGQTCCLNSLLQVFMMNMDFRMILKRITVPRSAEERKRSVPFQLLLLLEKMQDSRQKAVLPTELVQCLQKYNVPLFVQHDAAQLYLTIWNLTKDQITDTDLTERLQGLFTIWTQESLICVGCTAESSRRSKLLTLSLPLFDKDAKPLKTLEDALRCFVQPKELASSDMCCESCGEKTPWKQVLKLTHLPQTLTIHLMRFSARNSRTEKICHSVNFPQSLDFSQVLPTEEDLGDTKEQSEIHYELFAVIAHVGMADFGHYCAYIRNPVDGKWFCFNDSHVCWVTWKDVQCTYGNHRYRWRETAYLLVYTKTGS

[3] = target: T1, His6-Hs.USP18 (16-372); experiment: SPR; BIAcore 3000; mouse and human USP18 immobilised via the N-terminal His6 tag on an NTA chip; 25 °C; 50 mM HEPES, 150 mM NaCl, 0.05 mM EDTA, 0.5 mM DTT, 0.01% P20, pH 7.5; 20 μL/min; Langmuir 1:1 model with drift
[4] = target: T2, His6-Mm.USP18 (46-368); experiment: as above

- binding result [1]: binds
- binding result [2]: binds
B1: Ac-mISG15CTD[WT]-PA (domain or fragment, mouse)
chain: LSILVRNERGHSNIYEVFLTQTVDTLKKKVSQREQVHEDQFWLSFEGRPMEDKELLGEYGLKPQSTVIKHLRLRG
modifications: N-terminal acetyl; C-terminal propargylamine (PA) warhead replacing Gly155
notes: C-terminal domain of mouse ISG15, Leu80~Gly154; also called Ac-mISG15CTD-PA; WT probe; source: synthetic (solid-phase peptide synthesis), RP-HPLC purified

- binding result [3]: binds
- binding result [4]: binds
B2: Ac-mISG15CTD-OH (wild type) (domain or fragment, mouse)
chain: B1 chain
modifications: N-terminal acetyl
notes: C-terminal domain of mouse ISG15, Leu80~Gly154; also called Ac-mISG15CTD[WT]-OH; source: synthetic (solid-phase peptide synthesis), RP-HPLC purified
